Experimental data taken from paper PMC3190825.

Key:
Test in all cases: SPR
[1] = biological target: IgABR tandem construct of protein β (group B Streptococcus)
[2] = biological target: Recombinant B6N fragment of protein β (single copy) (group B Streptococcus)
[3] = biological target: B6N tandem construct of protein β (group B Streptococcus)

Purified human IgA (natural protein)
Kd [1]: 0.061 µM

Recombinant hSiglec-5-Fc chimera (from UniProt O15389 17-441) (Fc fusion)
Kd [2]: 0.014 µM

B1: Recombinant hSiglec-5-Fc chimera (Fc fusion)
chain: EKPVYELQVQKSVTVQEGLCVLVPCSFSYPWRSWYSSPPLYVYWFRDGEIPYYAEVVATNNPDRRVKPETQGRFRLLGDVQKKNCSLSIGDARMEDTGSYFFRVERGRDVKYSYQQNKLNLEVTALIEKPDIHFLEPLESGRPTRLSCSLPGSCEAGPPLTFSWTGNALSPLDPETTRSSELTLTPRPEDHGTNLTCQMKRQGAQVTTERTVQLNVSYAPQTITIFRNGIALEILQNTSYLPVLEGQALRLLCDAPSNPPAHLSWFQGSPALNATPISNTGILELRRVRSAEEGGFTCRAQHPLGFLQIFLNLSVYSLPQLLGPSCSWEAEGLHCRCSFRARPAPSLCWRLEEKPLEGNSSQGSFKVNSSSAGPWANSSLILHGGLSSDLKVSCKAWNIYGSQSGSVLLLQGRSNLGTGVVPAAL
modifications: 125I (chloramine-T method) in the assays with radiolabeled hSiglec-5
Kd [3]: 0.0035 µM
